The target of test [1] is T1, purified human activated C1s protein, two-chain form (Homo sapiens, UniProt P09871 16-688).
T1 construct: Also used here for C1s acting in human serum assays; also called human C1s; active C1s
T1 sequence: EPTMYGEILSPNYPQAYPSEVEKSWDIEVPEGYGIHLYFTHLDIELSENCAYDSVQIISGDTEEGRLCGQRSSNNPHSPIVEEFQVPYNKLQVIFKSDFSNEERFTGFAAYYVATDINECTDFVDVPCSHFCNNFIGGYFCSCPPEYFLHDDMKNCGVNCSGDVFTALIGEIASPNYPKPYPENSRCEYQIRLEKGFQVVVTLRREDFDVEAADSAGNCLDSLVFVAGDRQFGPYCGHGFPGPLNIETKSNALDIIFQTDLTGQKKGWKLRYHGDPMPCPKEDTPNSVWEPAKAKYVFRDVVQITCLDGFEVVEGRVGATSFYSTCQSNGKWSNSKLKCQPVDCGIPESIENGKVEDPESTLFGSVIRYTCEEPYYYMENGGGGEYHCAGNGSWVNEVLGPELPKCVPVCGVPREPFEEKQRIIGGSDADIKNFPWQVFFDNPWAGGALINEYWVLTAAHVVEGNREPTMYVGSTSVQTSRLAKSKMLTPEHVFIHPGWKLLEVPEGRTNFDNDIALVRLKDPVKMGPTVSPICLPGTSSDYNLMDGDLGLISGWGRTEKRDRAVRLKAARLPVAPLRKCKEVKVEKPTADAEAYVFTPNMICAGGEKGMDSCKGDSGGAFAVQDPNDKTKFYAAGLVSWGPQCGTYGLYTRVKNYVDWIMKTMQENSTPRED
Description: kinetic binding measurement, method not stated; lower end of the printed KD range, native human C1s.

The target of a further test is T2, C1r.
T2 construct: member of group m5; also called complement C1r
T2 chain: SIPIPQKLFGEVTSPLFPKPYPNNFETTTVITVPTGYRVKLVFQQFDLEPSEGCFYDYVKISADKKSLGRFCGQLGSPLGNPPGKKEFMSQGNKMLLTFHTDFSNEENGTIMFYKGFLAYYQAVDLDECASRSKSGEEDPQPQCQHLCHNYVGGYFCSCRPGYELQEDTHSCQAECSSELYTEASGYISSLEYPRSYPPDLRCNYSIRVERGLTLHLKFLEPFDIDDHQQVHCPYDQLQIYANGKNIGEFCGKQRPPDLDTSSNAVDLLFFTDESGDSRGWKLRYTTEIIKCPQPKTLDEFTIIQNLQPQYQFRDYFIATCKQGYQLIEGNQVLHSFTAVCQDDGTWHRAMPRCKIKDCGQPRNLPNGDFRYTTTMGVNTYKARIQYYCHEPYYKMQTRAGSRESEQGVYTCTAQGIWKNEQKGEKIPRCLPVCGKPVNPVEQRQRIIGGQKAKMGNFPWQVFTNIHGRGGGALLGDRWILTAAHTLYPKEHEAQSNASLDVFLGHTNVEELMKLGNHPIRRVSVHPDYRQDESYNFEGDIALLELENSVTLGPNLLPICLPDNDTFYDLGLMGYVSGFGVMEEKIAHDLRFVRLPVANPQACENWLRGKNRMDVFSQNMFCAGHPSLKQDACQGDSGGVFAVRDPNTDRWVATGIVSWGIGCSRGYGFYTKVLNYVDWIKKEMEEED
Description: ELISA, target proteins immobilized on micro-titer plates. As to the method: (§1) To determine whether IPN003 could bind other components of the complement cascade, ELISA assays were performed with target proteins immobilized on micro-titer plates.
On the technique in general: In an ELISA, binding on a coated surface is turned into a signal by an enzyme label.

In another test the target is T3, C2.
T3 construct: member of group m5; also called complement C2
T3 chain: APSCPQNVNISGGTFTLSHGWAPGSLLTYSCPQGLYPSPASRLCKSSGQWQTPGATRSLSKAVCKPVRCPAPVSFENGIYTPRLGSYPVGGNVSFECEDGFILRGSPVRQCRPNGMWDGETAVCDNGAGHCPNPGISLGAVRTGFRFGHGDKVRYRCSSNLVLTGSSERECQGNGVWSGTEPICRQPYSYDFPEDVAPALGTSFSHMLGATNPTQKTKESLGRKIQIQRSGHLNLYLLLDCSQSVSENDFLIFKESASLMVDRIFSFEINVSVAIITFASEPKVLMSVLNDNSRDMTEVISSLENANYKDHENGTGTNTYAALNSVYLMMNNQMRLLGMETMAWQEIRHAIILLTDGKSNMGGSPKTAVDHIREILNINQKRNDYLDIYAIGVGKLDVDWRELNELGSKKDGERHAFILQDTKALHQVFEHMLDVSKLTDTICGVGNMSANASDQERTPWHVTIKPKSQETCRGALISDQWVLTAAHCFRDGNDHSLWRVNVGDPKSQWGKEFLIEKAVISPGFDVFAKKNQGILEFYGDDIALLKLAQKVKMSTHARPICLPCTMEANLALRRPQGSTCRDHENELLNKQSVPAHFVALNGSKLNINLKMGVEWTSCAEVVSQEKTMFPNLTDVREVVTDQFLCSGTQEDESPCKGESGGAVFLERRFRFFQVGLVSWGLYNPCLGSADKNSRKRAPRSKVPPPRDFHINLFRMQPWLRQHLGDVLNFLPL
The test is described as above. As to the method:
as §1

Test [2] concerns the target T1, purified human activated C1s protein, …. Described as above. How it is done:
as §1

Test [3] has the same target. Description: competition ELISA, plate-coated human C1s; competitor biotin-labeled M81 at 0.5E-9 M; competition with biotin-labeled M81 (0.5E-9 M), plate-coated native human C1s. As to the method:
To determine if IPN003 could compete binding of M81 to human C1s, competition assays were performed, in which biotin-labeled M81 (final concentration 0.5E-9 M) was incubated with increasing concentrations of unlabeled antibodies in wells coated with human C1s.

The target in another test is T4, Inactive-C1s (Homo sapiens, UniProt P09871).
T4 construct: proenzyme (pro-C1s); also called pro-C1s
T4 sequence (single chain, looked up): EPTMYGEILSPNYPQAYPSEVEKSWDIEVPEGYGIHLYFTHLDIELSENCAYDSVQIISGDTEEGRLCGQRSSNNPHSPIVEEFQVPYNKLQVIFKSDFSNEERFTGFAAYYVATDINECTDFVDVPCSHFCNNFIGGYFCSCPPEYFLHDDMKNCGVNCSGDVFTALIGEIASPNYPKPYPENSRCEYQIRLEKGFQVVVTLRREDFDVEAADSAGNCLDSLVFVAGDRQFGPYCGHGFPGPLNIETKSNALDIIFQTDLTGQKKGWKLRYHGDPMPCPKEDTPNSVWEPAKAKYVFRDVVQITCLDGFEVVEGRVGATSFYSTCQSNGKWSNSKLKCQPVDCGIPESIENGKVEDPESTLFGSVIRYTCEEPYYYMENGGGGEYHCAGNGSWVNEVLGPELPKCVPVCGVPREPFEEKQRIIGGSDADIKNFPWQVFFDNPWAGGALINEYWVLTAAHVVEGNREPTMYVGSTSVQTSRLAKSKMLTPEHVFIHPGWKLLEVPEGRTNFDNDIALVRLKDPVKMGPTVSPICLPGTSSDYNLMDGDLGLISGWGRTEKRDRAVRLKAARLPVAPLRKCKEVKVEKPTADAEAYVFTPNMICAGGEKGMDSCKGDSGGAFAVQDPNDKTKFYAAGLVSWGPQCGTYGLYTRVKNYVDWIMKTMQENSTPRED
Description: kinetic binding measurement, method not stated; Table 4, Inactive-C1s.

The next test deals with T5, purified rat C1s (rat, UniProt Q6P6T1 16-688, limits assumed).
T5 construct: also called rat complement C1s protein
T5 sequence (looked up): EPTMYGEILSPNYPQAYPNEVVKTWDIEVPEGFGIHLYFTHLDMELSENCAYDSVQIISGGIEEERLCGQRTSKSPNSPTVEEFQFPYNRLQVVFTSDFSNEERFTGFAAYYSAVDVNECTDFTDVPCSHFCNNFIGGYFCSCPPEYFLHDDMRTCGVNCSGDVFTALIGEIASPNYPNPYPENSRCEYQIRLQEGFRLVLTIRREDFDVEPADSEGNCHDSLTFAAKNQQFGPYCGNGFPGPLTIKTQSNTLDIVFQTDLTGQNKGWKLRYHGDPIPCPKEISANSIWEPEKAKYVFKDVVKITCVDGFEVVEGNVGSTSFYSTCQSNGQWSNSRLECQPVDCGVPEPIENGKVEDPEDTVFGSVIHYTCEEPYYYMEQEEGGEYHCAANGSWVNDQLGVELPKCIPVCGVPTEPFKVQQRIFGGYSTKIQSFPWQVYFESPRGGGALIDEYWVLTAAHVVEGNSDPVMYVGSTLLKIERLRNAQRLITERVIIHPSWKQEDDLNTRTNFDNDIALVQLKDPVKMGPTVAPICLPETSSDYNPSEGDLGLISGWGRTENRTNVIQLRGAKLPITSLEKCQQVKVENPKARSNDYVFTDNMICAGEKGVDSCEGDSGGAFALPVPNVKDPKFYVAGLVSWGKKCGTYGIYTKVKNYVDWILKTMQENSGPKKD
Description: ELISA, purified rat C1s immobilized on micro-titer plates, increasing dilutions of antibody. How it is done: ELISA assays were performed with purified rat C1s immobilized on micro-titer plates and increasing dilutions of IPN003 or M81.

The target of test [4] is T1, purified human activated C1s protein, …. In words: kinetic binding measurement, method not stated; kinetic measurement, native human C1s.
The target is the same in test [5]. In words: kinetic binding measurement, method not stated; Table 4, Active-C1s.

B1: Anti-C1s monoclonal antibody IPN003 (antibody, V domains shown)
VH: EVMLVESGGALVKPGGSLKLSCAASGFTFSNYAMSWVRQIPEKRLEWVATISSGGSHTYYLDSVKGRFTISRDNARDTLYLQMSSLRSEDTALYYCARLFTGYAMDYWGQGTSVTVSS
VL: QIVLTQSPAIMSASLGERVTMTCTASSSVSSSYLHWYQQKPGSSPKLWIYSTSNLASGVPARFSGSGSGTFYSLTISSMEAEDDATYYCHQYYRLPPITFGAGTKLELK
notes: Mouse monoclonal antibody from an NZBW hybridoma; Biotin-labeled in some assays; also called IPN-M34; M34
Consider B1, for which the Kd – broadly, the constant that tells how readily two partners part at equilibrium – in test [1] was 1.58 to 2.04 nM; in the test with Inactive-C1s it was 1.58 nM; in the test with purified rat C1s it was 0.2 nM; in [5], 2.04 nM. The binding result with C1r and with C2 was “no binding (tested: about 2e-7 M)” in each case. The EC50 (read off the curve) (as a rule, the concentration giving half of the maximal effect) in test [2] is ~300 pM. Moreover, the IC50 (commonly the midpoint of a concentration-inhibition curve) in [3] came out at 0.33 nM. The values for the koff (with Inactive-C1s; in [4]; in [5]) were 0.000553 s⁻¹, 0.000553 s⁻¹ and 0.000658 s⁻¹, respectively. The kon (in general, a measure of how fast the partners come together) in the test with Inactive-C1s came out at 356000 M⁻¹ s⁻¹; in test [4], 356000 M⁻¹ s⁻¹; in test [5], 323000 M⁻¹ s⁻¹.

The values are drawn from patent US20150104448A1 (TRUE NORTH THERAPEUTICS, published 2015).
